Data: patent US20180244756A1 (US Dept. of Health and Human Services, published 2018)

Target: T1, MERS-CoV S-[change] protein, England1 strain (MERS-CoV, England1 strain, UniProt K9N5Q8 19-1290)
T1 sequence: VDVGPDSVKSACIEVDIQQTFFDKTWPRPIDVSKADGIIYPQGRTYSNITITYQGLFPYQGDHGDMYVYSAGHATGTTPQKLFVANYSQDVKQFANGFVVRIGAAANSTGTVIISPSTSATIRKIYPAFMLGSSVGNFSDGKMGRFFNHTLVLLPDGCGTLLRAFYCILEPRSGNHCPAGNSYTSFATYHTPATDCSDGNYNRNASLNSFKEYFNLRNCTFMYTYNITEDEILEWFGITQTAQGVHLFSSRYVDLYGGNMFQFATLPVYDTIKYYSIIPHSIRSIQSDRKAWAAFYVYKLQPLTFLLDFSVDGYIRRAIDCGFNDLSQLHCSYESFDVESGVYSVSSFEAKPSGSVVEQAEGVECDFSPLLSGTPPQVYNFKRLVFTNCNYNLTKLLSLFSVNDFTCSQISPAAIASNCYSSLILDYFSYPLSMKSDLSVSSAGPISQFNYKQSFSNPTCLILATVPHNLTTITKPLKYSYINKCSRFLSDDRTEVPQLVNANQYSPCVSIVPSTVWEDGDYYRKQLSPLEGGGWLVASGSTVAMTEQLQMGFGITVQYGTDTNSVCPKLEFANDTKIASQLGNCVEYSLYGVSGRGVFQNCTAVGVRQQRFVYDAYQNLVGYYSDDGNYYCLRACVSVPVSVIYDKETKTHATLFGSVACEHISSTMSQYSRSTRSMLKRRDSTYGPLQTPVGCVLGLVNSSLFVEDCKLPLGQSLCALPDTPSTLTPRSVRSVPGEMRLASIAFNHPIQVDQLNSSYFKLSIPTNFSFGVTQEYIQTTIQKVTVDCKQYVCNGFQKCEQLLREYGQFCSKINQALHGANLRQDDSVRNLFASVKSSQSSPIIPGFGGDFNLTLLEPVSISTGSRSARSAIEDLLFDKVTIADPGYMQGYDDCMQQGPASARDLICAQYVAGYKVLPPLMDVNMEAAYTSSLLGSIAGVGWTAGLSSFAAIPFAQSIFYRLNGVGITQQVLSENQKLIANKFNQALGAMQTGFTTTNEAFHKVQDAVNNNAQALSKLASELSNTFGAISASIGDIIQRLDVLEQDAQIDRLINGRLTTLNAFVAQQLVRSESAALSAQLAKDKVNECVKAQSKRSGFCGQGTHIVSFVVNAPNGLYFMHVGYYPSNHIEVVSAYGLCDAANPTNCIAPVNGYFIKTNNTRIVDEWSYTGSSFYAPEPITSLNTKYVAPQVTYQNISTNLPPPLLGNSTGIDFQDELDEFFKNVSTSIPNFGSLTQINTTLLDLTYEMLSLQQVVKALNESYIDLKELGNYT
Experiment: ELISA, hybridoma supernatant

Binder | ELISA (unit not given)
G2 antibody (antibody, V domains shown) VH: QVQLQQSGGELVKPGASVKLSCKTSGFTFSSSYISWLKQKPGQSLEWIAWIYAGTGGTEYNQKFTGKAQVTVDTSSSTAYMQFSSLTTEDSAIYYCARGGSSFAMDYWGQGTSVTVSS VL: not shown | 0.58
G4 antibody (antibody, V domains shown) VH: QVQLQQSGPELVRPGVSVKISCKGSGYTFTDYAIHWVKQSHAKSLEWIGVFSTYYGNTNYNQKFKGRATMTVDKSSSTAYMELARLTSEDSAIYYCARKSYYVDYVDAMDYWGQGTSVTVSS VL: not shown | 2.8
